Data from publication PMC8590968.

What was measured:
[1] = biological target: Sambucus nigra lectin (Sambucus nigra); assay: immunostaining of cells or tissue
[2] = biological target: Maackia amurensis lectin II (Maackia amurensis); assay: immunostaining of cells or tissue

Sequence of Sambucus nigra lectin (Sambucus nigra) (Q41358 29-289 limits assumed, chain 1 of 2): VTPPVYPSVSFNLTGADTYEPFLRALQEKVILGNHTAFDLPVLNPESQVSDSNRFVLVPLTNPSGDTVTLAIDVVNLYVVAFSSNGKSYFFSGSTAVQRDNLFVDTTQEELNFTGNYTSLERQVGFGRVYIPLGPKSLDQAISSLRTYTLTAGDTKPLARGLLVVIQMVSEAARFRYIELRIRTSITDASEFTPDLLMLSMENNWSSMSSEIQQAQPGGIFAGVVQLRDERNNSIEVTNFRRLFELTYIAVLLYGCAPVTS
Sequence of Sambucus nigra lectin (Sambucus nigra) (Q41358 309-570 limits assumed, chain 2 of 2): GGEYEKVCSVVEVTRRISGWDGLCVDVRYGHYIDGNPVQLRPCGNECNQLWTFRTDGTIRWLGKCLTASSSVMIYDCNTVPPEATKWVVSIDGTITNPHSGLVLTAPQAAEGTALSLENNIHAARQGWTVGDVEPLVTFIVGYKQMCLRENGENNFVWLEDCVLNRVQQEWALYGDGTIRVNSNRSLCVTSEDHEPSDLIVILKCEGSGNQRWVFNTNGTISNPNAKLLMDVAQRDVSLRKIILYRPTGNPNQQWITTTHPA

Substance | percent reduction of lectin bound to MDCK cells [1] [%] | percent reduction of lectin bound to MDCK cells [2] [%]
desialylated bovine lactoferrin (natural protein) | 60 | –
native bovine lactoferrin (natural protein) | – | 40
